Here are results for 3 molecules from PMC9280364, “MdNAC4 Interacts With MdAPRR2 to Regulate Nitrogen Deficiency-Induced Leaf Senescence in Apple (Malus domestica)”.

Series [1] deals with T1, MdNAC4-GST (Malus domestica, UniProt B6DXL4 1-350).
T1 sequence: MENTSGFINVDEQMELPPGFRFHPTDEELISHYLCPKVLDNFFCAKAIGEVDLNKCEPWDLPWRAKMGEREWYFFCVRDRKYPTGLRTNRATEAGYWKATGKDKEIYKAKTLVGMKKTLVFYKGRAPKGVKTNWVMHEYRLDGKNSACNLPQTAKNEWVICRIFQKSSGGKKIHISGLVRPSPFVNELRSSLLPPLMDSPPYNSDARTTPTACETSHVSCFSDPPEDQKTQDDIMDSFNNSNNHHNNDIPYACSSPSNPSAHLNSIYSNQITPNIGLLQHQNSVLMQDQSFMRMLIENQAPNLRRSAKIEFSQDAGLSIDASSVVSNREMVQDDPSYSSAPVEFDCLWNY
Description: EMSA; EMSA binding buffer (composition not given), 24 °C, 30 min in the dark. To be noted: protein: recombinant; tags: GST (pGEX-4T-1 type primers GST-MdNAC4-F/R); chain copies: 2; blunt.

Series [2] deals with T1, MdNAC4-GST. Description: EMSA; unlabeled probe competes; EMSA binding buffer (composition not given), 24 °C, 30 min in the dark. The note with it: protein: recombinant; tags: GST (pGEX-4T-1 type primers GST-MdNAC4-F/R); chain copies: 2; label: biotin; blunt.

B1: MdPAO Mut probe (dsDNA)
DNA 1: AGTTATCCATCCGTCTAAAACCAAT
DNA 2: ATTGGTTTTAGACGGATGGATAACT
Take B1: the binding result in the series with MdNAC4-GST [1] is listed as “no binding”.

B2: MdNYC1 promoter probe (ABRE) (dsDNA)
DNA 1: ATATAGGCACGTGAAGGGAGGACAGAGATG
DNA 2: CATCTCTGTCCTCCCTTCACGTGCCTATAT
As for B2, in the series with MdNAC4-GST [2], the binding result was “binds”.

B3: MdPAO promoter probe (ABRE) (dsDNA)
DNA 1: AGTTATCCATACGTGTAAAACCAAT
DNA 2: ATTGGTTTTACACGTATGGATAACT
As for B3, in the series with MdNAC4-GST [2], the binding result is “binds”.
